This is an account of results in patent publication US20240383985A1 (published 2024).

Positions count from the first letter of the chain named. Names and notes keep the numbering of the source.

B1: CD33 antibody IgG1 wt subtype QP41154116 (antibody, V domains shown)
VH: QVQLVQSGAEVKKPGESVKVSCKASGYTFTNYGMNWVKQAPGQGLEWMGWINTYTGEPTYADKFQGRVTMTTDTSTSTAYMEIRNLGGDDTAVYYCARWSWSDGYYVYFDYWGQGTSVTVSS
VL: DIVMTQSPDSLTVSLGERTTINCKSSQSVLDSSTNKNSLAWYQQKPGQPPKLLLSWASTRESGIPDRFSGSGSGTDFTLTIDSPQPEDSATYYCQQSAHFPITFGQGTRLEIKR
B2: CD33/CD16A/IL-15 trifunctional fusion protein QP43394340 (FC with L234A/L235A mutation for eliminating function) (bispecific antibody)
chain 1: not shown
chain 2: not shown
light: DIVMTQSPDSLTVSLGERTTINCKSSQSVLDSSTNKNSLAWYQQKPGQPPKLLLSWASTRESGIPDRFSGSGSGTDFTLTIDSPQPEDSATYYCQQSAHFPITFGQGTRLEIKRTVAAPSVFIFPPSDEQLKSGTASVVCLLNNFYPREAKVQWKVDNALQSGNSQESVTEQDSKDSTYSLSSTLTLSKADYEKHKVYACEVTHQGLSSPVTKSFNRGEC
heavy: QVQLVQSGAEVKKPGESVKVSCKASGYTFTNYGMNWVKQAPGQGLEWMGWINTYTGEPTYADKFQGRVTMTTDTSTSTAYMEIRNLGGDDTAVYYCARWSWSDGYYVYFDYWGQGTSVTVSSASTKGPSVFPLAPSSKSTSGGTAALGCLVKDYFPEPVTVSWNSGALTSGVHTFPAVLQSSGLYSLSSVVTVPSSSLGTQTYICNVNHKPSNTKVDKKVEPKSCDKTHTCPPCPAPEAAGGPSVFLFPPKPKDTLMISRTPEVTCVVVDVSHEDPEVKFNWYVDGVEVHNAKTKPREEQYNSTYRVVSVLTVLHQDWLNGKEYKCKVSNKALPAPIEKTISKAKGQPREPQVYTLPPSREEMTKNQVSLSCAVKGFYPSDIAVEWESNGQPENNYKTTPPVLDSDGSFFLVSKLTVDKSRWQQGNVFSCSVMHEALHNRYTQKSLSLSPGK
B3: CD33/CD16A/IL-15 trifunctional fusion protein QP743745 (FC wild-type) (bispecific antibody)
chain 1: not shown
chain 2: not shown
light: B2 light
heavy: B2 heavy with A239L, A240L
B4: CD33/CD16A bispecific antibody QP4115777778 (FC wild-type) (bispecific antibody)
chain: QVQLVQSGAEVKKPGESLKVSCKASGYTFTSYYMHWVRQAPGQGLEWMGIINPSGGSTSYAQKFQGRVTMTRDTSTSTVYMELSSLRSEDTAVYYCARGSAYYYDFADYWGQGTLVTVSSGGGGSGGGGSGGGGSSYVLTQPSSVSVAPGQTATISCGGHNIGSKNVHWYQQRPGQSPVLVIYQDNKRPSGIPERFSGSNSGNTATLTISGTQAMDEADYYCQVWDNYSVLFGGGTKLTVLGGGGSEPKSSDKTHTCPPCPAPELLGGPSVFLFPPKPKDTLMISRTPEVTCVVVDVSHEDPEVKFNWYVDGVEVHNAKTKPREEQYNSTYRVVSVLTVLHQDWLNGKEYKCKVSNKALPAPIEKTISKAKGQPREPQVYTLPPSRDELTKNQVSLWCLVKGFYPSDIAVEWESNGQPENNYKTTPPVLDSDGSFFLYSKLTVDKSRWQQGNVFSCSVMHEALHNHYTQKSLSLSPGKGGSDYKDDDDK
heavy: QVQLVQSGAEVKKPGESVKVSCKASGYTFTNYGMNWVKQAPGQGLEWMGWINTYTGEPTYADKFQGRVTMTTDTSTSTAYMEIRNLGGDDTAVYYCARWSWSDGYYVYFDYWGQGTSVTVSSASTKGPSVFPLAPSSKSTSGGTAALGCLVKDYFPEPVTVSWNSGALTSGVHTFPAVLQSSGLYSLSSVVTVPSSSLGTQTYICNVNHKPSNTKVDKKVEPKSCDKTHTCPPCPAPELLGGPSVFLFPPKPKDTLMISRTPEVTCVVVDVSHEDPEVKFNWYVDGVEVHNAKTKPREEQYNSTYRVVSVLTVLHQDWLNGKEYKCKVSNKALPAPIEKTISKAKGQPREPQVYTLPPSREEMTKNQVSLSCAVKGFYPSDIAVEWESNGQPENNYKTTPPVLDSDGSFFLVSKLTVDKSRWQQGNVFSCSVMHEALHNRYTQKSLSLSPGKGGSHHHHHH
light: B2 light
B5: QP42664421 (antibody)
chain 1: B2 light
chain 2: B4 heavy with L239A, L240A
chain 3: MEFGLSWLFLVAILKGVQCITCPPPMSVEHADIWVKSYSLYSRERYICNSGFKRKAGTCSLTECVLNKATNVAHWTTPSLKCIRGGGSGGGGGGGGSSYVLTQPSSVSVAPGQTATISCGGHNIGSKNVHWYQQRPGQSPVLVIYQDNKRPSGIPERFSGSNSGNTATLTISGTQAMDEADYYCQVWDNYSVLFGGGTKLTVL
chain 4: not shown
B6: QP42664406 (antibody)
chain 1: B2 light
chain 2: B4 heavy with L239A, L240A
chain 3: not shown
chain 4: not shown
B7: QP42664269 (antibody)
chain 1: B2 light
chain 2: B4 heavy with L239A, L240A
chain 3: not shown
chain 4: not shown
B8: QP42824285 (antibody)
chain 1: MEFGLSWLFLVAILKGVQCQVQLVQSGAEVKKPGESVKVSCKASGYTFTNYGMNWVKQAPGQGLEWMGWINTYTGEPTYADKFQGRVTMTTDTSTSTAYMEIRNLGGDDTAVYYCARWSWSDGYYVYFDYWGQGTSVTVSSGGGSGGGGSYVLTQPSSVSVAPGQTATISCGGHNIGSKNVHWYQQRPGQSPVLVIYQDNKRPSGIPERFSGSNSGNTATLTISGTQAMDEADYYCQVWDNYSVLFGGGTKLTVLGGGGSGGGGSGGGGSRTVAAPSVFIFPPSDEQLKSGTASVVCLLNNFYPREAKVQWKVDNALQSGNSQESVTEQDSKDSTYSLSSTLTLSKADYEKHKVYACEVTHQGLSSPVTKSFNRGEC
chain 2: MEFGLSWLFLVAILKGVQCQVQLVQSGAEVKKPGESLKVSCKASGYTFTSYYMHWVRQAPGQGLEWMGIINPSGGSTSYAQKFQGRVTMTRDTSTSTVYMELSSLRSEDTAVYYCARGSAYYYDFADYWGQGTLVTVSSGGGSGGGGDIVMTQSPDSLTVSLGERTTINCKSSQSVLDSSTNKNSLAWYQQKPGQPPKLLLSWASTRESGIPDRFSGSGSGTDFTLTIDSPQPEDSATYYCQQSAHFPITFGQGTRLEIKGGGGSGGGGSGGGGSASTKGPSVFPLAPSSKSTSGGTAALGCLVKDYFPEPVTVSWNSGALTSGVHTFPAVLQSSGLYSLSSVVTVPSSSLGTQTYICNVNHKPSNTKVDKKVEPKSCDKTHTCPPCPAPEAAGGPSVFLFPPKPKDTLMISRTPEVTCVVVDVSHEDPEVKFNWYVDGVEVHNAKTKPREEQYNSTYRVVSVLTVLHQDWLNGKEYKCKVSNKALPAPIEKTISKAKGQPREPQVYTLPPSREEMTKNQVSLSCAVKGFYPSDIAVEWESNGQPENNYKTTPPVLDSDGSFFLVSKLTVDKSRWQQGNVFSCSVMHEALHNRYTQKSLSLSPGKGGSHHHHHH
chain 3: not shown
chain 4: not shown
B9: QP42884285 (antibody)
chain 1: DIVMTQSPDSLTVSLGERTTINCKSSQSVLDSSTNKNSLAWYQQKPGQPPKLLLSWASTRESGIPDRFSGSGSGTDFTLTIDSPQPEDSATYYCQQSAHFPITFGQGTRLEIKTVAAPSVFIFPPSYVLTQPSSVSVAPGQTATISCGGHNIGSKNVHWYQQRPGQSPVLVIYQDNKRPSGIPERFSGSNSGNTATLTISGTQAMDEADYYCQVWDNYSVLFGGGTKLTVLRTVAAPSVFIFPPSDEQLKSGTASVVCLLNNFYPREAKVQWKVDNALQSGNSQESVTEQDSKDSTYSLSSTLTLSKADYEKHKVYACEVTHQGLSSPVTKSFNRGEC
chain 2: QVQLVQSGAEVKKPGESVKVSCKASGYTFTNYGMNWVKQAPGQGLEWMGWINTYTGEPTYADKFQGRVTMTTDTSTSTAYMEIRNLGGDDTAVYYCARWSWSDGYYVYFDYWGQGTSVTVSSASTKGPQVQLVQSGAEVKKPGESLKVSCKASGYTFTSYYMHWVRQAPGQGLEWMGIINPSGGSTSYAQKFQGRVTMTRDTSTSTVYMELSSLRSEDTAVYYCARGSAYYYDFADYWGQGTLVTVSSASTKGPSVFPLAPSSKSTSGGTAALGCLVKDYFPEPVTVSWNSGALTSGVHTFPAVLQSSGLYSLSSVVTVPSSSLGTQTYICNVNHKPSNTKVDKKVEPKSCDKTHTCPPCPAPEAAGGPSVFLFPPKPKDTLMISRTPEVTCVVVDVSHEDPEVKFNWYVDGVEVHNAKTKPREEQYNSTYRVVSVLTVLHQDWLNGKEYKCKVSNKALPAPIEKTISKAKGQPREPQVYTLPPSREEMTKNQVSLSCAVKGFYPSDIAVEWESNGQPENNYKTTPPVLDSDGSFFLVSKLTVDKSRWQQGNVFSCSVMHEALHNRYTQKSLSLSPGKGGSHHHHHH
chain 3: not shown
chain 4: not shown

The first test deals with T1, CD33 naturally expressed on HL60 cells (human, UniProt P20138 18-364). Kind of test: FACS.
T1 sequence (P20138 18-364): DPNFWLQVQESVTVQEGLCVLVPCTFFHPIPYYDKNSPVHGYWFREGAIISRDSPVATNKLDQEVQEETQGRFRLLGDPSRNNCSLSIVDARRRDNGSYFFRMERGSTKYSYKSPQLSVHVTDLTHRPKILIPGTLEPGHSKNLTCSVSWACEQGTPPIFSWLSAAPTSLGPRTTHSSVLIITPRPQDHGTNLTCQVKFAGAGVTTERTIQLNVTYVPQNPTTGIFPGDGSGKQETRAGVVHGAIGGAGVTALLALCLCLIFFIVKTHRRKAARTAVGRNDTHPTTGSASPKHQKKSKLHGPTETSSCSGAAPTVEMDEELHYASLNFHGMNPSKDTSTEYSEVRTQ
The term EC50 denotes the concentration needed to bring the measured effect to its halfway point. Read a low EC50 as an effect from little substance. Consider B1, for which it took 2.89 nM to reach a half-maximal effect (EC50). On to B2, for which the EC50 turned out to be 13.4 nM. B3 returned an EC50 of 8.08 nM. On the same count and under the same terms, the same measure for B4: 9.63 nM.

The next test concerns the target T1, CD33 naturally expressed on HL60 cells. Kind of test: FACS. The source holds these as a separate data set. In general terms: A flow cytometer gives signals particle by particle.
Consider B1, for which the response was half-maximal at 3.31 nM (EC50). Same read-out and setting: then B5, with 11.6 nM; and B6, with 11.3 nM. Still for that read-out and setting: the same measure for B7: 2.27 nM.

The molecule B8 came in with an EC50 of 2.31 nM. Still for that read-out and setting: the same measure for B9: 1.97 nM.
